Values quoted from earlier work in PMC7602980 (Biomolecules, 2020).

Molecular target: Cx43CT
Conditions: compared with CaM; no reference printed beside the value; Drebrin–Cx43 interaction ref [78]; read-out: binding affinity Drebrin for Cx43CT, as quoted in discussion
Description: While CaM can be seen as mimicking P ...

Kd: ~300 µM
B1: Drebrin: developmentally regulated brain protein, linker between Cx43 gap junctions and actin/submembrane cytoskeleton (protein, UniProt Q16643 2-649, looked up)
Drebrin: AGVSFSGHRLELLAAYEEVIREESAADWALYTYEDGSDDLKLAASGEGGLQELSGHFENQKVMYGFCSVKDSQAALPKYVLINWVGEDVPDARKCACASHVAKVAEFFQGVDVIVNASSVEDIDAGAIGQRLSNGLARLSSPVLHRLRLREDENAEPVGTTYQKTDAAVEMKRINREQFWEQAKKEEELRKEEERKKALDERLRFEQERMEQERQEQEERERRYREREQQIEEHRRKQQTLEAEEAKRRLKEQSIFGDHRDEEEETHMKKSESEVEEAAAIIAQRPDNPREFFKQQERVASASAGSCDVPSPFNHRPGSHLDSHRRMAPTPIPTRSPSDSSTASTPVAEQIERALDEVTSSQPPPLPPPPPPAQETQEPSPILDSEETRAAAPQAWAGPMEEPPQAQAPPRGPGSPAEDLMFMESAEQAVLAAPVEPATADATEIHDAADTIETDTATADTTVANNVPPAATSLIDLWPGNGEGASTLQGEPRAPTPPSGTEVTLAEVPLLDEVAPEPLLPAGEGCATLLNFDELPEPPATFCDPEEVEGESLAAPQTPTLPSALEELEQEQEPEPHLLTNGETTQKEGTQASEGYFSQSQEEEFAQSEELCAKAPPPVFYNKPPEIDITCWDADPVPEEEEGFEGGD
